Test results taken from US20120316071A1 (published 2012).

biological target: T1, Recombinant Human DLL4 (human, UniProt Q9NR61 27-524); assay: ELISA, DLL4 coated on the plate, Fab at 100 nM, signal minus blank
T1 construct: Bought recombinant human DLL4 (R&D Systems Cat#1506-D4/CF); also called delta-like protein 4; Delta-like 4

Row | Binder | ELISA Signal-blank (100 nM Fab)
1 | Fab VH5-51_IGHD5-18*01>3_IGHJ4*01 G100K/G104T G24T/S28R/G35V (H:KT TRV) & V3-4_IGLJ1*01 S58A (Fab, V domains shown, Fab; expressed from plasmid A (CH1, His6 and Flag tags) and plasmid E (lambda CL)) VH: EVQLVQSGAEVKKPGESLKISCKTSGYRFTSYWIVWVRQMPGKGLEWMGIIYPGDSDTRYSPSFQGQVTISADKSISTAYLQWSSLKASDTAMYYCARRKYSYTYDYFDYWGQGTLVTVSS VL: QTVVTQEPSFSVSPGGTVTLTCGLSSGSVSTSYYPSWYQQTPGQAPRTLIYSTNTRSAGVPDRFSGSILGNKAALTITGAQADDESDYYCVLYMGSGISYVFGTGTKVTVL | 0.451
2 | Fab VH5-51_IGHD5-18*01>3_IGHJ4*01 G100K/G104T G24T/S28R/G35V (H:KT TRV) & V3-4_IGLJ1*01 S96W (Fab, V domains shown, Fab; expressed from plasmid A (CH1, His6 and Flag tags) and plasmid E (lambda CL)) VH: EVQLVQSGAEVKKPGESLKISCKTSGYRFTSYWIVWVRQMPGKGLEWMGIIYPGDSDTRYSPSFQGQVTISADKSISTAYLQWSSLKASDTAMYYCARRKYSYTYDYFDYWGQGTLVTVSS VL: QTVVTQEPSFSVSPGGTVTLTCGLSSGSVSTSYYPSWYQQTPGQAPRTLIYSTNTRSSGVPDRFSGSILGNKAALTITGAQADDESDYYCVLYMGWGISYVFGTGTKVTVL | 0.261
3 | Fab VH5-51_IGHD5-18*01>3_IGHJ4*01 G100K/G104T G24T/S28R/G35V (H:KT TRV) & V3-4_IGLJ1*01 V91C (Fab, V domains shown, Fab; expressed from plasmid A (CH1, His6 and Flag tags) and plasmid E (lambda CL)) VH: EVQLVQSGAEVKKPGESLKISCKTSGYRFTSYWIVWVRQMPGKGLEWMGIIYPGDSDTRYSPSFQGQVTISADKSISTAYLQWSSLKASDTAMYYCARRKYSYTYDYFDYWGQGTLVTVSS VL: QTVVTQEPSFSVSPGGTVTLTCGLSSGSVSTSYYPSWYQQTPGQAPRTLIYSTNTRSSGVPDRFSGSILGNKAALTITGAQADDESDYYCCLYMGSGISYVFGTGTKVTVL | 0.625
4 | Fab VH5-51_IGHD5-18*01>3_IGHJ4*01 G100K/G104T G24T/S28R/G35V (H:KT TRV) & V3-4_IGLJ1*01 V91A (Fab, V domains shown, Fab; expressed from plasmid A (CH1, His6 and Flag tags) and plasmid E (lambda CL)) VH: EVQLVQSGAEVKKPGESLKISCKTSGYRFTSYWIVWVRQMPGKGLEWMGIIYPGDSDTRYSPSFQGQVTISADKSISTAYLQWSSLKASDTAMYYCARRKYSYTYDYFDYWGQGTLVTVSS VL: QTVVTQEPSFSVSPGGTVTLTCGLSSGSVSTSYYPSWYQQTPGQAPRTLIYSTNTRSSGVPDRFSGSILGNKAALTITGAQADDESDYYCALYMGSGISYVFGTGTKVTVL | 0.529
5 | Fab VH5-51_IGHD5-18*01>3_IGHJ4*01 G100K/G104T G24T/S28R/G35V (H:KT TRV) & V3-4_IGLJ1*01 V91E (Fab, V domains shown, Fab; expressed from plasmid A (CH1, His6 and Flag tags) and plasmid E (lambda CL)) VH: EVQLVQSGAEVKKPGESLKISCKTSGYRFTSYWIVWVRQMPGKGLEWMGIIYPGDSDTRYSPSFQGQVTISADKSISTAYLQWSSLKASDTAMYYCARRKYSYTYDYFDYWGQGTLVTVSS VL: QTVVTQEPSFSVSPGGTVTLTCGLSSGSVSTSYYPSWYQQTPGQAPRTLIYSTNTRSSGVPDRFSGSILGNKAALTITGAQADDESDYYCELYMGSGISYVFGTGTKVTVL | 0.152
6 | Fab VH5-51_IGHD5-18*01>3_IGHJ4*01 G100K/G104T G24T/S28R/G35V (H:KT TRV) & V3-4_IGLJ1*01 V91W (Fab, V domains shown, Fab; expressed from plasmid A (CH1, His6 and Flag tags) and plasmid E (lambda CL)) VH: EVQLVQSGAEVKKPGESLKISCKTSGYRFTSYWIVWVRQMPGKGLEWMGIIYPGDSDTRYSPSFQGQVTISADKSISTAYLQWSSLKASDTAMYYCARRKYSYTYDYFDYWGQGTLVTVSS VL: QTVVTQEPSFSVSPGGTVTLTCGLSSGSVSTSYYPSWYQQTPGQAPRTLIYSTNTRSSGVPDRFSGSILGNKAALTITGAQADDESDYYCWLYMGSGISYVFGTGTKVTVL | 0.08
7 | Fab VH5-51_IGHD5-18*01>3_IGHJ4*01 G100K/G104T G24T/S28R/G35V (H:KT TRV) & V3-4_IGLJ1*01 V91S (Fab, V domains shown, Fab; expressed from plasmid A (CH1, His6 and Flag tags) and plasmid E (lambda CL)) VH: EVQLVQSGAEVKKPGESLKISCKTSGYRFTSYWIVWVRQMPGKGLEWMGIIYPGDSDTRYSPSFQGQVTISADKSISTAYLQWSSLKASDTAMYYCARRKYSYTYDYFDYWGQGTLVTVSS VL: QTVVTQEPSFSVSPGGTVTLTCGLSSGSVSTSYYPSWYQQTPGQAPRTLIYSTNTRSSGVPDRFSGSILGNKAALTITGAQADDESDYYCSLYMGSGISYVFGTGTKVTVL | 0.264

biological target: T2, Recombinant Human DLL4 (human, UniProt Q9NR61 27-524); assay: ELISA, DLL4 coated on plate, Fab at 100 nM, absorbance at 450 nm minus blank
T2 construct: also called delta-like protein 4; rHuman DLL4

Row | Binder | ELISA Signal-blank (100 nM Fab)
8 | Fab VH5-51_IGHD5-18*01>3_IGHJ4*01 G100K/G104T G24T/S28R/G35V (H:KT TRV) & V3-4_IGLJ1*01 T78S (Fab, V domains shown, Fab; expressed in E. coli with CH1 (Plasmid A, His6 and Flag tags) and lambda CL (Plasmid E); also called H:KT TRV & T78S) VH: EVQLVQSGAEVKKPGESLKISCKTSGYRFTSYWIVWVRQMPGKGLEWMGIIYPGDSDTRYSPSFQGQVTISADKSISTAYLQWSSLKASDTAMYYCARRKYSYTYDYFDYWGQGTLVTVSS VL: QTVVTQEPSFSVSPGGTVTLTCGLSSGSVSTSYYPSWYQQTPGQAPRTLIYSTNTRSSGVPDRFSGSILGNKAALTISGAQADDESDYYCVLYMGSGISYVFGTGTKVTVL | 0.093
9 | Fab VH5-51_IGHD5-18*01>3_IGHJ4*01 G100K/G104T G24T/S28R/G35V (H:KT TRV) & V3-4_IGLJ1*01 G27A (Fab, V domains shown, Fab; expressed in E. coli with CH1 (Plasmid A, His6 and Flag tags) and lambda CL (Plasmid E); also called H:KT TRV & G27A) VH: EVQLVQSGAEVKKPGESLKISCKTSGYRFTSYWIVWVRQMPGKGLEWMGIIYPGDSDTRYSPSFQGQVTISADKSISTAYLQWSSLKASDTAMYYCARRKYSYTYDYFDYWGQGTLVTVSS VL: QTVVTQEPSFSVSPGGTVTLTCGLSSASVSTSYYPSWYQQTPGQAPRTLIYSTNTRSSGVPDRFSGSILGNKAALTITGAQADDESDYYCVLYMGSGISYVFGTGTKVTVL | 0.398
10 | Fab VH5-51_IGHD5-18*01>3_IGHJ4*01 G100K/G104T G24T/S28R/G35V (H:KT TRV) & V3-4_IGLJ1*01 G23A (Fab, V domains shown, Fab; expressed in E. coli with CH1 (Plasmid A, His6 and Flag tags) and lambda CL (Plasmid E); also called H:KT TRV & G23A) VH: EVQLVQSGAEVKKPGESLKISCKTSGYRFTSYWIVWVRQMPGKGLEWMGIIYPGDSDTRYSPSFQGQVTISADKSISTAYLQWSSLKASDTAMYYCARRKYSYTYDYFDYWGQGTLVTVSS VL: QTVVTQEPSFSVSPGGTVTLTCALSSGSVSTSYYPSWYQQTPGQAPRTLIYSTNTRSSGVPDRFSGSILGNKAALTITGAQADDESDYYCVLYMGSGISYVFGTGTKVTVL | 0.405
